Source: the supplement of paper PMC10567573

B1: GMCL1 (parent)
chain: RPDTGDDAAGHGFCYCAGSHKRKR

Variants of: B1
Assay: protein stability index of a GFP-peptide fusion (GPS, HEK-293T) (PSI 1-6); higher = more stable
Settings: c terminus: a fixed tail appended
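Note: lentivirally expressed fusions sorted by FACS into six bins by GFP to DsRed ratio, PSI derived from sequencing read proportions per bin multiplied by bin number.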

Protein stability index of substitutions, site by site:
G5: W 2.59, E 2.93, F 2.59, C 3.63, K 3.45, N 3.17, M 2.84, Q 2.87, L 3.1, R 3.15, Y 3.27, T 2.97, D 2.89, S 3.5, H 2.48, P 3.48, A 3.37, I 3.28, V 2.99
G10: W 2.84, L 2.36, K 3.22, P 2.73, D 3.37, N 3.71, Y 2.91, F 2.9, H 3.1, M 3.2, Q 3.36, V 3.49, A 2.86, C 2.78, I 2.71, T 3.18, E 3.14, R 2.81, S 2.95
D7: I 3.08, M 3.44, W 2.2, R 3.51, P 3.28, H 3.09, K 3.03, F 2.83, V 3.16, A 3.46, G 3.3, Q 2.83, T 3.49, C 3.02, S 3.47, Y 2.99, E 3.95, L 3.03, N 3.13
H11: N 2.32, C 2.47, K 3.16, E 3.49, M 3.15, F 3.27, R 3.43, I 3.26, W 2.95, D 3.45, A 3.64, L 3.14, T 4.18, P 3.21, G 3.18, Y 2.84, S 3.24, Q 3.22, V 2.75
A9: F 2.72, E 3.05, Y 3.05, V 2.96, S 2.7, D 3.81, I 2.65, M 2.96, W 2.96, C 3.89, K 3.07, G 3.43, Q 3.06, L 2.71, P 3.01, R 3.46, T 3.55, H 2.48, N 3.52
D3: Q 2.51, T 2.86, V 3.91, S 3.14, Y 3.15, R 3.19, W 3.04
A8: Q 3.16, Y 2.61, I 3.06, S 3.72, D 2.97, K 2.94, V 3.18, T 2.73, H 3.61, R 3.08, L 2.36, M 2.85, F 2.61, C 3.23, E 3.26, G 3.11, P 3.09, W 3.38, N 2.96
D6: G 3.16, C 3.8, T 2.89, I 3.05, H 2.8, A 3.21, M 2.79, S 2.97, Y 3.15, P 2.96, V 2.93, R 3.23, Q 3.46, W 2.99, L 3.13, F 2.73, N 3.57, K 3.27, E 3.46
T4: H 3.11, W 2.71, M 2.98, Q 3.47, G 3.93, D 3.79, P 2.96, R 3.6, K 3.14, N 2.97, F 3.28, C 2.14, I 3.06, A 3.06, Y 2.87, L 2.81, S 3.06, V 3, E 3.16
G12: A 2.52, F 3.02, K 3.21, E 2.9, I 3.02, C 2.45, D 3.14, H 3.05
